In patent US6306649:

Molecular target: ZFHD1 (Zif268 zinc fingers-Oct1 homeodomain chimera) fused to 3xFKBP (UniProt P08046+P14859)
Assay: cell_activity
Details: SEAP reporter in HT1080 cells; rapamycin-dependent, peak at 5 nM; no SEAP without either fusion

ZFHD1 (Zif268 zinc fingers-Oct1 homeodomain chimera) fused to 3xFKBP, sequence (P08046 whole entry, change not shown, chain 1 of 2, the tested form may be a part): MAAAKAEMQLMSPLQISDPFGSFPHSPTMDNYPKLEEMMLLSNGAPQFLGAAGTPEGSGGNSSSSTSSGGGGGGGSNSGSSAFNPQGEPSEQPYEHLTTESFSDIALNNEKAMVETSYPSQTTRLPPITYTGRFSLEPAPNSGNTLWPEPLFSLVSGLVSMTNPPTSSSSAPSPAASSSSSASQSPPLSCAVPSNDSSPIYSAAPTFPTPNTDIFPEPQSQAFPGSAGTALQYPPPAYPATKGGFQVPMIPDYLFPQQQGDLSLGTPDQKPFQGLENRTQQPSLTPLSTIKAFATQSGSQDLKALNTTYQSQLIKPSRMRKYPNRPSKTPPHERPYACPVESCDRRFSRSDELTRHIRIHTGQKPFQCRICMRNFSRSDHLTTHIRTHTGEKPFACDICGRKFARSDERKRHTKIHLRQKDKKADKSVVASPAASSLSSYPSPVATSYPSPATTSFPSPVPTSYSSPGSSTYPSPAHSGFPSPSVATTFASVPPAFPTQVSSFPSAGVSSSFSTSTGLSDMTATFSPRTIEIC
ZFHD1 (Zif268 zinc fingers-Oct1 homeodomain chimera) fused to 3xFKBP, sequence (P14859 whole entry, change not shown, chain 2 of 2, the tested form may be a part): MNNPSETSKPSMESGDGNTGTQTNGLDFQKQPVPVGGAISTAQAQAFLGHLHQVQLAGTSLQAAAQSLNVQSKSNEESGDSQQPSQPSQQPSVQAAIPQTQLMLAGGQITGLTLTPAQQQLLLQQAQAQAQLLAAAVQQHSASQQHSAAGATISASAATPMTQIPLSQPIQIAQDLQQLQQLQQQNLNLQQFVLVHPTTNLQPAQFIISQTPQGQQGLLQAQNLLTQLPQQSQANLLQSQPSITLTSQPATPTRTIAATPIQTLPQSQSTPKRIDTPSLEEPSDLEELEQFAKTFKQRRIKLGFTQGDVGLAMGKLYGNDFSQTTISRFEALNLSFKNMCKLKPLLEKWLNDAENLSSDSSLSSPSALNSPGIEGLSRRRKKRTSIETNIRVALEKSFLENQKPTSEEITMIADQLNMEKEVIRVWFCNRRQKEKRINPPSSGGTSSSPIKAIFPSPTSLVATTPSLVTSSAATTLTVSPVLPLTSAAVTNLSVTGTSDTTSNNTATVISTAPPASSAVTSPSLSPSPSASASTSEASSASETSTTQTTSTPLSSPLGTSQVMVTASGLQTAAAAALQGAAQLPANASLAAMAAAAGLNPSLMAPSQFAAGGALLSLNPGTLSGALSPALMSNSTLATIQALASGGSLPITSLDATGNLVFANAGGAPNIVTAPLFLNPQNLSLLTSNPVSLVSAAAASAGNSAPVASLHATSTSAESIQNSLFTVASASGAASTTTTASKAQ

## GCTAGCTAATGATGGGCGCTCGAGTAATGATGGGCGGTCGACTAATGATGGGCGCTCGAGTAATGATGGGCGTCTAGCTAATGATGGGCGCTCGAGTAATGATGGGCGGTCGACTAATGATGGGCGCTCGAGTAATGATGGGCGTCTAGCTAATGATGGGCGCTCGAGTAATGATGGGCGGTCGACTAATGATGGGCGCTCGAGTAATGATGGGCGTCTAGA (double strand) [12x ZFHD1 binding sites (pZHWTx12)]
  activity: > 1000 fold
